Source: patent US20260049134A1 (UNIVERSITY OF FLORIDA RESEARCH FOUNDATION, published 2026)

What was measured:
ANXA1 = target: T1, ANXA1; experiment: ELISA on coated ANXA1-His
T1 construct: coated protein in the ELISA; also called ANXA1-His (R&D Systems)
T1 chain: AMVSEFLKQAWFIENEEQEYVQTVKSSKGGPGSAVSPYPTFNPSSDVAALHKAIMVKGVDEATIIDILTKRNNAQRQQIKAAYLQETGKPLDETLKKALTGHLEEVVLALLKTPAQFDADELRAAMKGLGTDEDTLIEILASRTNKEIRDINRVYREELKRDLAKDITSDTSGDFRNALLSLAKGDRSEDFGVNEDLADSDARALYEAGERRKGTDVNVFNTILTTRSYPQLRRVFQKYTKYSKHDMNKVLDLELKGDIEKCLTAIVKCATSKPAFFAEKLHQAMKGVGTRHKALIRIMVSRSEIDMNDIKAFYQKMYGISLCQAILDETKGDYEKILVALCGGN
Experimental: (§1) Recombinant purified ECDs (50-150 ng) of each putative target protein were coated, incubated with 150 ng of the indicated primary antibody, and binding was detected using a peroxidase-conjugated anti-human Fab secondary antibody. Heatmap represents averages of technical triplicates. (8B) Target validation via siRNA knockdown. H929 cells were transfected with siRNA pools targeting the putative antibody targets ICAM1, CADM1, and PTPRG. Cells were then subjected to cognate IgG binding analysis via flow cytometry. (NT, non-targeting siRNA).
(§2) ELISA ELISA was conducted as described previously. Briefly, 50-150 ng of antigen was coated overnight in half-area 96-well plates at 4° C., blocked with 3% BSA at 37° C. for 1 h, and 150 ng of chimeric rabbit/human IgG1 was added, incubating for 2 h at 37° C. […] After incubating at 37° C. for 15 min-1 h (depending on intensity of controls), data were acquired using a SpectraMax M5 plate reader (Molecular Devices).

IGSF11 (VSIG3) [1] = target: T2, IGSF11 (VSIG3); experiment: ELISA on coated IGSF11-Fc
T2 construct: coated protein in the ELISA; also called IGSF11-Fc (R&D Systems)
T2 chain: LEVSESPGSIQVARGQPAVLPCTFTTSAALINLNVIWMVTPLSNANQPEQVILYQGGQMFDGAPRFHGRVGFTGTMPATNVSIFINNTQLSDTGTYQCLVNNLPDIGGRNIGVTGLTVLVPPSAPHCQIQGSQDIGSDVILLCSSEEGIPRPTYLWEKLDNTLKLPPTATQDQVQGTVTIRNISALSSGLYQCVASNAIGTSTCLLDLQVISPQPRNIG
Experimental: as §1, §2

DCC = target: T3, DCC; experiment: ELISA on coated DCC-His, 150 ng IgG1; None 0.095
T3 construct: coated protein in the ELISA; also called DCC-His (R&D Systems)
T3 chain: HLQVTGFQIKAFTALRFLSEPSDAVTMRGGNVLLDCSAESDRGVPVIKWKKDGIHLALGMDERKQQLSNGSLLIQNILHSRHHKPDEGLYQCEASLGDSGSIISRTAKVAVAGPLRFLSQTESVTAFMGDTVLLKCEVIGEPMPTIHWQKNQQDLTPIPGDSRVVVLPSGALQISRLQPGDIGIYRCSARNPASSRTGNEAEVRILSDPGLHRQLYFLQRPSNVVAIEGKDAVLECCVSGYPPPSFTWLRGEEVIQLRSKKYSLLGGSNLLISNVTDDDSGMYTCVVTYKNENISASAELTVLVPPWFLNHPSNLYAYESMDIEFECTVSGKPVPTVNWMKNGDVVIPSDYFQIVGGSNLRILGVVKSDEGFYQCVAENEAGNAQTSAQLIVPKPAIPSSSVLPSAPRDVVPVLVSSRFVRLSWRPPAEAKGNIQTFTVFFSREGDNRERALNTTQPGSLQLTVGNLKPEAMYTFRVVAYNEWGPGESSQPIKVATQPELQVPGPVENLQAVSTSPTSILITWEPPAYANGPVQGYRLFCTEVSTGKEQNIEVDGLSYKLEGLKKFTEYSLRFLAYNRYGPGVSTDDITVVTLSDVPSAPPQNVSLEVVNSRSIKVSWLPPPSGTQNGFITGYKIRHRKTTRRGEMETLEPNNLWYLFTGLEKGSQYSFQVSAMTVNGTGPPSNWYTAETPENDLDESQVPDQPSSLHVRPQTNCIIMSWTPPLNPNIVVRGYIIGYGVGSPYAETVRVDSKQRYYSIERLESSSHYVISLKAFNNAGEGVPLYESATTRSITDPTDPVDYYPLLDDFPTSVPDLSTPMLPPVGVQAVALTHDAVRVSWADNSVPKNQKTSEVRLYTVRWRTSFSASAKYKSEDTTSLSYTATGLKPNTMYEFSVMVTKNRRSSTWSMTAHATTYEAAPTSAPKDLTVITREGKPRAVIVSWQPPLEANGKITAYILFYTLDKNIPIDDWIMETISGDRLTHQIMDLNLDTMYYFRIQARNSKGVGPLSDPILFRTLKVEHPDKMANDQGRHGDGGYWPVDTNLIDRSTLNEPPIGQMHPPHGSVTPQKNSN
Experimental: as §1, §2

IGSF11 (VSIG3) [2] = target: T2, IGSF11 (VSIG3); experiment: ELISA on coated IGSF11-Fc, 150 ng IgG1; None 0.090
Experimental: as §1, §2

IL13RA1 = target: T4, IL13RA1; experiment: ELISA on coated IL13RA1-Fc-His, 150 ng IgG1; None 0.094
T4 construct: coated protein in the ELISA; also called IL13RA1-Fc-His (R&D Systems)
T4 chain: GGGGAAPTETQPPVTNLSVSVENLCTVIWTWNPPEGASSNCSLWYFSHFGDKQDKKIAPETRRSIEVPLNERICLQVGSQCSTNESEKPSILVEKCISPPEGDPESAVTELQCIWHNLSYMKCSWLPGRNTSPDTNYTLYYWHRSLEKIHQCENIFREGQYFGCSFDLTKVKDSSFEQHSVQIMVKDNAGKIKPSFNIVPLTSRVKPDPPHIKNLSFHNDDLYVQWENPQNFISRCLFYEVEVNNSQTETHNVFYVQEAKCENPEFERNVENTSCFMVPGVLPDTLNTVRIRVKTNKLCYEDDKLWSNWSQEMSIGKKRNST
Experimental: as §1, §2

SLAMF7 = target: T5, SLAMF7; experiment: ELISA on coated SLAMF7-StrepTag, 150 ng IgG1; None 0.047
T5 construct: coated protein in the ELISA; also called SLAMF7-StrepTag
T5 chain: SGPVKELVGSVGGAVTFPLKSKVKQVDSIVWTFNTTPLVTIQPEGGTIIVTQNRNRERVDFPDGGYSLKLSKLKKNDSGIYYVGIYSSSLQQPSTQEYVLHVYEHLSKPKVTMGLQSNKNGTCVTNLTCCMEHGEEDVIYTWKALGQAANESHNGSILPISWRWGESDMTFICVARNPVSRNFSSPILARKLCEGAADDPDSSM
Experimental: as §1, §2

Row | Binder | binding result (ANXA1) | binding result (IGSF11 (VSIG3) [1]) | ELISA Absorbance (405 nm-570 nm) (DCC) | ELISA Absorbance (405 nm-570 nm) (IGSF11 (VSIG3) [2]) | ELISA Absorbance (405 nm-570 nm) (IL13RA1) | ELISA Absorbance (405 nm-570 nm) (SLAMF7)
1 | HW-97 chimeric rabbit-human IgG1 LA/LA/PG (antibody, V domains shown, Fc-silenced (L234A/L235A/P329G) IgG1, lambda; Alexa Fluor 647-labeled in single-step flow cytometry; Prototype of cluster C-97) VH: QKQLVESGGRLVTPGTPLTLTCTVTGIDLSSHGMSWVRQAPGKGLEWIGVIYPSGSTWYASWARGRFTISKTSTTVDLKMTSLTTEDTATHFCARGDVGGADNNIWGPGTLVTVSS VL: SFVLTQPASVQVDLGQTVSLTCTAETLSRSYASWYQQKPGQAPVLLIYRDTSRPSGVPDRFSGSSSGNTATLTISGAQAGDEADYYCATSDGSGSSYQYVFGGGTQLTVTG | no binding (tested: 150 ng IgG1 per well) | no binding (tested: 150 ng IgG1 per well) | 0.065 | 0.078 | 0.08 | 0.051
2 | HW-101 chimeric rabbit-human IgG1 LA/LA/PG (antibody, V domains shown, Fc-silenced (L234A/L235A/P329G) IgG1, lambda; Alexa Fluor 647-labeled in single-step flow cytometry; Cluster C-97) VH: QEQLVESGGRLVTPGTPLTLTCKASGFSLGKYDMSWVRQAPGKGLEWIGTIYAGSGSTWYASWAKGRFTISKTSTTVDLKMTSLTTEDTATYFCARDFLGVNSIWGPGTLVTISS VL: SFVLTQPASVQVNLGQTVSLTCTADTLSRSYASWYQQKPDQAPVLLIHRDTSRPSGVPDRFSGSNSGNTATLTISGAQAGDEADYYCATSDGSGSNFHFVFGGGTQLTVTG | no binding (tested: 150 ng IgG1 per well) | no binding (tested: 150 ng IgG1 per well) | 0.057 | 0.066 | 0.067 | 0.046
3 | HW-113 chimeric rabbit-human IgG1 LA/LA/PG (antibody, V domains shown, Fc-silenced (L234A/L235A/P329G) IgG1, lambda; Alexa Fluor 647-labeled in single-step flow cytometry) VH: QKQLVESGGGLVQPGGSLTLTCTVSGFSLNKYYMGWFRQAPGKGLEWIGVISRSGDTYYSSWAKGRFTISKASTTVDLRITSPTTEDTATYFCARDASSPGFHGDRLDLWGQGTLVTVSS VL: SFVLTQPASVQVNLGQTVSLTCTADTLSRSYASWYQQKPGQAPVLLIYRDTSRPSGVPDRFSGSSSGNTATLTISGAQAGDEADYYCATSDGIGSNYLWVFGGGTQLTVTG | no binding (tested: 150 ng IgG1 per well) | no binding (tested: 150 ng IgG1 per well) | 0.072 | 0.075 | 0.086 | 0.048
4 | HW-56 chimeric rabbit-human IgG1 LA/LA/PG (antibody, V domains shown, Fc-silenced (L234A/L235A/P329G) IgG1, kappa; Alexa Fluor 647-labeled in single-step flow cytometry; Cluster C-45) VH: QSVKESEGGLFKPTDTLTLTCTASGFTVSTNAVTWVRQAPGNGLEYIGTIGRSGSAYFASWAKRRSTLTRDINLNTVTLKMTSLTAADTATYFCVRGSPGYRTAISIWGPGTLVTISS VL: AVMTQTPSSTSAAVEGTVTINCQASQSISNRLSWFQQKPGQPPKLLIYQASTLASGVPSRFKGSGSGTEFTLTISGVQREDAATYYCLGSYSSSDASFGGGTKLEIKR | no binding (tested: 150 ng IgG1 per well) | no binding (tested: 150 ng IgG1 per well) | 0.088 | 0.076 | 0.16 | 0.074
5 | HW-81 chimeric rabbit-human IgG1 LA/LA/PG (antibody, V domains shown, Fc-silenced (L234A/L235A/P329G) IgG1, lambda; Alexa Fluor 647-labeled in single-step flow cytometry; Cluster C-45) VH: QKQLVESGGGLVTPGGTLTLTCTVSGFSLSSNGVSWVRQAPGKGLEYIGLIRSIGSTYYATWAKGRFTISKTSTTVDLKITSPTTEDTATYFCARGGYRNGFKLWGPGTLVTVSS VL: QPVLTQSPSVSAALGASAKLTCTLSSAHKTYYIEWYQQQHPGKAPRYLMQLQSDGSYTKGTGVPDRFSGSSSGADRYLIISSVQAEDEADYICGVIDSAVYVFGGGTQLTVTG | no binding (tested: 150 ng IgG1 per well) | no binding (tested: 150 ng IgG1 per well) | 0.068 | 0.065 | 0.099 | 0.054
